Reference: a protein production outcome set (Wang et al. 2014)

Assay: label from the status in PepcDB records

Row | Sequence | protein production
1 | MEVKFLDYTLRVGGEAGQGLQTIGGALAKIFSRKGYHVFTHQDYMSRIRGGHNFYQLRFSDREVMASKELVDILLALDLNTIEIHKNSVREDGFILYDSESMKKKFEGPQFIDIPFRKIALDVGKKSVMANTVATGAVLGLLDLGLDLLNDILRVTFEDKGKEIIEQNIACAEAGYNYAHSNCSRCEAFGIPEPEARKLLLIDGVQAIGMGALMSGCTFYSAYPMSPSTGILNYLASRAEEYGLVIEQAEDEIAAINMTIGASFAGARAMTGTSGGGFSLMAEGISLAGITETPLVLAEMQRPGPATGLPTRTEQGDLLFVLNAGHGEFPRVIFEPGTPEQAFYLTSKAFELAEKYQIPVFILSDQYLGESEWTFESFDLKRPVYNDYRVREKDLEGAEDYKRYGYTDTGISPLAVPGEAGKHLVVADSDEHDEEGHIIEDAETRIKMVQKRLLKKLPLIKEEIEAPLLYGDSSPEIVLVGHGSTYGVIKEIVDIFSKDKKIAMMHFSQIYPFPERDRFDYIEFLKNANLVISVENNATGQFAKLMRAETGFEFARQILKYDGRPFTIEKLKEEIDACL | failed
2 | AQSILEKADEIRFPQDSFQVNVAIRTAAPDHAEDLYRYQVLSKGNENSIVMITEPASERGQAILMKGRDLWVFMPSVSQPIRLSLSQRLTGQVANGDIARANFTGDYHPQLLRNESIDDEDYYVLELTGIDRSVTYQKVLLWVNQSNFRPYKAEFYSVSGRLLKTSRYENFDNILGEMRPTRIIMEDALKSGEVSVLDYSDMKLRDLPDKIFTKDYLKR | not failed
3 | MFFLLLTPFNAAASETNSDDATADAKNLSGTNAADTVVSQIIGASVYIEGEIYNNEYATISVTTKNEGDKSSEGHIIVAFPNNEEILSKEGSGDRVDIYPSGSSIETKDGTKIDSSEYLFVDLVKYDWETGKNETLNLKVKPNKGSEEIVYLVRAELMNDATGDYERYPGILSESSDVDQQGWYVYNNSFGVSGDPDLMIEDISWEPENPHENENVTFKVTLKNVGLASSGNCSVKCYLDGNEISFSTVSGLEADSTTSFTFNWVPTSSGSMDLKVVVDSEGQFVEFTEENNEKTGIFKVISYTNSSSPSSPSPGSGSSSSSSSSGGGAGGSPEPASNVEIKELAQQFVSNGNHAKFIFAKNVTSIAYIEFDPKKTVGKTTTIVETLKGKSTLVTELPTGKVYKNTNIWVGNEGTASSENIENAVVGFKVEKTWINSNGVDSSSVKLWAFEDEKWVELPTSQTDEDEDYVYYEADTPGFASFSIMALYPEENTEGTSLPLGSYVEDKDTKAVSETSEEESEVVDSEAGENNSGSMKKGLLAIGMLAAVILAGYVISRKQD | failed
4 | MLYIIGLGLYDEKDITVRGLEAVKSCDLVFLEHYTAILQCDVAKLEEFYGKKVIIGDRDLVETEADQILEPAKTKNVALLVVGDVYGATTHSDIFVRCQKMGIEVKVIHNASIMNAIGCSGLQLYRFGQTVSVCFWSEHWRPSSYYPKIKINRDNNMHTLVLLDIKVKERSEENIIKGRDIFEPPRYMTINQCIEQLLEVEKEQHLGVYDEDTMVVGMARVACADQKIVYGKMKDLLHYDFGAPMHCLLIPAPQVDDPELDHLEYFKYKPE | not failed
5 | MSEPLLHLTERSLWDAARDRGTYEMATRGRTLQEEGFIHCSLRHQLPGVAALLYGSRAGSDELVVLVVDAERLAAPVRYEAVGPGGEEFPHVYGPIPVSAVVDVEVWTGGEAASALEHHHHHH | not failed
6 | MKVAVLVGGVGRRIGMEKTEVMLCGKKLIEWVLEKYSPFQTVFVCRDEKQAEKLSSRYEAEFIWDLHKGVGSIAGIHAALRHFGSCVVAAIDMPFVKPEVLEHLYKEGEKAGCDALIPKHDYPEPLLAYYAESAADELERAILQGIRKILVPLERLNVVYYPVEKLRKFDKELISFFNINTPDDLKRAEEICSKMSTEGLLEHHHHHH | not failed
7 | EEKVVAEQQADGTWLMDGWISIRKASNLLEHDLVDEAERYSTLGGYLLWQFGYIPAAGEQITVDGLIFEIVSVNKHNIGKVRVHRTQ | not failed
8 | MVRVGMRAAPRVSLEALKAALGGLKLSEAKVYLITDWQDKRDQARYALLLHTGKKDLLVPDAFGPAFPGGEEALSELVGLLLAQGARRFYEAVVSPGEMTALLDLPPEELLKRVMAIANPTDPGIYLKRAA | not failed
9 | MTQHLTIAQTYLAAWNEEDNERRRHLVGQAWAENTRYVDPLMQGEGQQGIAAMIEAARQKFPGYRFVLAGTPDGHGNFTRFSWRLISPDGDDVAGGTDVVSLNTEGRIDNVVGFLDGAVS | not failed
